± gives the standard deviation of the averaged measurements.
Assay: total protein half-life in vivo (active degradation + dilution); higher = more stable protein
[1] = E. coli NCM3722 delta-clpP delta-lon delta-hslV, growth: N-lim chemostat, doubling time 6 h
[2] = E. coli NCM3722 delta-clpP, growth: N-lim chemostat, doubling time 6 h
[3] = E. coli NCM3722 delta-hslV, growth: N-lim chemostat, doubling time 6 h
[4] = E. coli NCM3722 delta-lon, growth: N-lim chemostat, doubling time 6 h
[5] = E. coli NCM3722 delta-smpB, growth: N-lim chemostat, doubling time 6 h
[6] = wild type E. coli NCM3722, growth: C-lim chemostat, doubling time 3 h
[7] = wild type E. coli NCM3722, growth: C-lim chemostat, doubling time 6 h
[8] = wild type E. coli NCM3722, growth: C-lim chemostat, doubling time 12 h
[9] = wild type E. coli NCM3722, growth: N-lim chemostat, doubling time 6 h
[10] = wild type E. coli NCM3722, growth: N-lim chemostat, doubling time 12 h
[11] = wild type E. coli NCM3722, growth: P-lim chemostat, doubling time 6 h
[12] = wild type E. coli NCM3722, growth: P-lim chemostat, doubling time 12 h

Row | Sequence | total protein half-life in vivo [1] [h] | total protein half-life in vivo [2] [h] | total protein half-life in vivo [3] [h] | total protein half-life in vivo [4] [h] | total protein half-life in vivo [5] [h] | total protein half-life in vivo [6] [h] | total protein half-life in vivo [7] [h] | total protein half-life in vivo [8] [h] | total protein half-life in vivo [9] [h] | total protein half-life in vivo [10] [h] | total protein half-life in vivo [11] [h] | total protein half-life in vivo [12] [h]
1 | MSKLLDRFRYFKQKGETFADGHGQVMHSNRDWEDSYRQRWQFDKIVRSTHGVNCTGSCSWKIYVKNGLVTWEIQQTDYPRTRPDLPNHEPRGCPRGASYSWYLYSANRLKYPLIRKRLIELWREALKQHSDPVLAWASIMNDPQKCLSYKQVRGRGGFIRSNWQELNQLIAAANVWTIKTYGPDRVAGFSPIPAMSMVSYAAGTRYLSLLGGTCLSFYDWYCDLPPASPMTWGEQTDVPESADWYNSSYIIAWGSNVPQTRTPDAHFFTEVRYKGTKTIAITPDYSEVAKLCDQWLAPKQGTDSALAMAMGHVILKEFHLDNPSDYFINYCRRYSDMPMLVMLEPRDDGSYVPGRMIRASDLVDGLGESNNPQWKTVAVNTAGELVVPNGSIGFRWGEKGKWNLESIAAGTETELSLTLLGQHDAVAGVAFPYFGGIENPHFRSVKHNPVLVRQLPVKNLTLVDGNTCPVVSVYDLVLANYGLDRGLEDENSAKDYAEIKPYTPAWGEQITGVPRQYIETIAREFADTAHKTHGRSMIILGAGVNHWYHMDMNYRGMINMLIFCGCVGQSGGGWAHYVGQEKLRPQTGWLPLAFALDWNRPPRQMNSTSFFYNHSSQWRYEKVSAQELLSPLADASKYSGHLIDFNVRAERMGWLPSAPQLGRNPLGIKAEADKAGLSPTEFTAQALKSGDLRMACEQPDSSSNHPRNLFVWRSNLLGSSGKGHEYMQKYLLGTESGIQGEELGASDGIKPEEVEWQTAAIEGKLDLLVTLDFRMSSTCLFSDIVLPTATWYEKDDMNTSDMHPFIHPLSAAVDPAWESRSDWEIYKGIAKAFSQVCVGHLGKETDVVLQPLLHDSPAELSQPCEVLDWRKGECDLIPGKTAPNIVAVERDYPATYERFTSLGPLMDKLGNGGKGISWNTQDEIDFLGKLNYTKRDGPAQGRPLIDTAIDASEVILALAPETNGHVAVKAWQALGEITGREHTHLALHKEDEKIRFRDIQAQPRKIISSPTWSGLESDHVSYNAGYTNVHELIPWRTLSGRQQLYQDHPWMRAFGESLVAYRPPIDTRSVSEMRQIPPNGFPEKALNFLTPHQKWGIHSTYSENLLMLTLSRGGPIVWISETDARELTIVDNDWVEVFNANGALTARAVVSQRVPPGMTMMYHAQERIMNIPGSEVTGMRGGIHNSVTRVCPKPTHMIGGYAQLAWGFNYYGTVGSNRDEFIMIRKMKNVNWLDDEGRDQVQEAKK | 6.1 ± 1 | 5.33 ± 0.2 | 6.53 ± 0.28 | 6.11 ± 1.5 | 5.8 ± 0.67 | 2.8 ± 0.2 | 6.25 ± 1.3 | 11.5 ± 1.3 | 5.956 ± 0.043 | 12.43 ± 0.018 | 5.7 ± 0.32 | 11.4 ± 0.43
2 | MSKNERMVGISRRTLVKSTAIGSLALAAGGFSLPFTLRNAAAAVQQAREKVVWGACSVNCGSRCALRLHVKDNEVTWVETDNTGSDEYGNHQVRACLRGRSIRRRINHPDRLNYPMKRVGKRGEGKFERISWDEALDTIASSLKKTVEQYGNEAVYIQYSSGIVGGNMTRSSPSASAVKRLMNCYGGSLNQYGSYSTAQISCAMPYTYGSNDGNSTTDIENSKLVVMFGNNPAETRMSGGGITYLLEKAREKSNAKMIVIDPRYTDTAAGREDEWLPIRPGTDAALVAGIAWVLINENLVDQPFLDKYCVGYDEKTLPADAPKNGHYKAYILGEGDDKTAKTPQWASQITGIPEDRIIKLAREIGTAKPAYICQGWGPQRQANGELTARAIAMLPILTGNVGISGGNSGARESTYTITIERLPVLDNPVKTSISCFSWTDAIDHGPQMTAIRDGVRGKDKLDVPIKFIWNYAGNTLVNQHSDINKTHEILQDESKCEMIVVIENFMTSSAKYADILLPDLMTVEQEDIIPNDYAGNMGYLIFLQPVTSEKFERKPIYWILSEVAKRLGPDVYQKFTEGRTQEQWLQHLYAKMLAKDPALPSYDELKKMGIYKRKDPNGHFVAYKAFRDDPEANPLKTPSGKIEIYSSRLAEIARTWELEKDEVISPLPVYASTFEGWNSPERRTFPLQLFGFHYKSRTHSTYGNIDLLKAACRQEVWINPIDAQKRGIANGDMVRVFNHRGEVRLPAKVTPRILPGVSAMGQGAWHEANMSGDKIDHGGCVNTLTTLRPSPLAKGNPQHTNLVEIEKI | 5.78 |  |  |  |  |  |  |  |  |  |  | 
3 | MSKNYHIAVLPGDGIGPEVMTQALKVLDAVRNRFAMRITTSHYDVGGAAIDNHGQPLPPATVEGCEQADAVLFGSVGGPKWEHLPPDQQPERGALLPLRKHFKLFSNLRPAKLYQGLEAFCPLRADIAANGFDILCVRELTGGIYFGQPKGREGSGQYEKAFDTEVYHRFEIERIARIAFESARKRRHKVTSIDKANVLQSSILWREIVNEIATEYPDVELAHMYIDNATMQLIKDPSQFDVLLCSNLFGDILSDECAMITGSMGMLPSASLNEQGFGLYEPAGGSAPDIAGKNIANPIAQILSLALLLRYSLDADDAACAIERAINRALEEGIRTGDLARGAAAVSTDEMGDIIARYVAEGV | 3.45 ± 0.8 | 2.56 ± 0.42 | 2.43 ± 0.12 | 2.96 ± 0.089 | 2.527 ± 0.018 | 3.23 ± 0.31 | 5.057 ± 0.042 | 8.72 ± 1.7 | 2.54 ± 0.19 | 3.52 ± 0.11 | 5.34 ± 0.7 | 9.08 ± 0.2
4 | MSKQSQHVLIALPHPLLHLVSLGLVSFIFTLFSLELSQFGTQLAPLWFPTSIMMVAFYRHAGRMWPGIALSCSLGNIAASILLFSTSSLNMTWTTINIVEAVVGAVLLRKLLPWYNPLQNLADWLRLALGSAIVPPLLGGVLVVLLTPGDDPLRAFLIWVLSESIGALALVPLGLLFKPHYLLRHRNPRLLFESLLTLAITLTLSWLSMLYLPWPFTFIIVLLMWSAVRLPRMEAFLIFLTTVMMVSLMMAADPSLLATPRTYLMSHMPWLPFLLILLPANIMTMVMYAFRAERKHISESETHFRNAMEYSAIGMALVGTEGQWLQTNKALCQFLGYSQEELRGLTFQQLTWPEDLNKDLQQVEKLISGEINTYSMEKRYYNRNGDVVWALLAVSLVRHTDGTPLYFIAQIEDINELKRTEQVNQQLMERITLANEAGGIGIWEWELKPNIFSWDKRMFELYEIPPHIKPNWQVWYECVLPEDRQHAEKVIRDSLQSRSPFKLEFRITVKDGIRHIRALANRVLNKEGEVERLLGINMDMTEVKQLNEALFQEKERLHITLDSIGEAVVCIDMAMKITFMNPVAEKMSGWTQEEALGVPLLTVLHITFGDNGPLMENIYSADTSRSAIEQDVVLHCRSGGSYDVHYSITPLSTLDGSNIGSVLVIQDVTESRKMLRQLSYSASHDALTHLANRASFEKQLRILLQTVNSTHQRHALVFIDLDRFKAVNDSAGHAAGDALLRELASLMLSMLRSSDVLARLGGDEFGLLLPDCNVESARFIATRIISAVNDYHFIWEGRVHRVGASAGITLIDDNNHQAAEVMSQADIACYASKNGGRGRVTVYEPQQAAAHSERAAMSLDEQWRMIKENQLMMLAHGVASPRIPEARNLWLISLKLWSCEGEIIDEQTFRRSFSDPALSHALDRRVFHEFFQQAAKAVASKGISISLPLSVAGLSSATLVNDLLEQLENSPLPPRLLHLIIPAEAILDHAESVQKLRLAGCRIVLSQVGRDLQIFNSLKANMADYLLLDGELCANVQGNLMDEMLITIIQGHAQRLGMKTIAGPVVLPLVMDTLSGIGVDLIYGEVIADAQPLDLLVNSSYFAIN | 4.93 ± 0.2 |  |  |  |  |  |  | 9.36 |  |  | 1.53 | 
5 | MSKRRYLTGKEVQAMMQAVCYGATGARDYCLILLAYRHGMRISELLDLHYQDLDLNEGRINIRRLKNGFSTVHPLRFDEREAVERWTQERANWKGADRTDAIFISRRGSRLSRQQAYRIIRDAGIEAGTVTQTHPHMLRHACGYELAERGADTRLIQDYLGHRNIRHTVRYTASNAARFAGLWERNNLINEKLKREEV [P0ADH7] | 4.85 ± 0.3 |  |  |  | 1.18 | 0.333 |  |  |  |  |  | 
6 | MSKRTFAVILTLLCSFCIGQALAGGIVLQRTRVIYDASRKEAALPVANKGAETPYLLQSWVDNIDGKSRAPFIITPPLFRLEAGDDSSLRIIKTADNLPENKESLFYINVRAIPAKKKSDDVNANELTLVFKTRIKMFYRPAHLKGRVNDAWKSLEFKRSDHSLNIYNPTEYYVVFAGLAVDKTDLTSKIEYIAPGEHKQLPLPASGGKNVKWAAINDYGGSSGTETRPLQ |  |  | 6.17 |  |  |  |  |  |  |  |  | 
7 | MSKSENLYSAARELIPGGVNSPVRAFTGVGGTPLFIEKADGAYLYDVDGKAYIDYVGSWGPMVLGHNHPAIRNAVIEAAERGLSFGAPTEMEVKMAQLVTELVPTMDMVRMVNSGTEATMSAIRLARGFTGRDKIIKFEGCYHGHADCLLVKAGSGALTLGQPNSPGVPADFAKYTLTCTYNDLASVRAAFEQYPQEIACIIVEPVAGNMNCVPPLPEFLPGLRALCDEFGALLIIDEVMTGFRVALAGAQDYYGVVPDLTCLGKIIGGGMPVGAFGGRRDVMDALAPTGPVYQAGTLSGNPIAMAAGFACLNEVAQPGVHETLDELTTRLAEGLLEAAEEAGIPLVVNHVGGMFGIFFTDAESVTCYQDVMACDVERFKRFFHMMLDEGVYLAPSAFEAGFMSVAHSMEDINNTIDAARRVFAKL | 6.35 ± 2.3 | 4.99 ± 0.35 | 5 ± 0.21 | 5.33 ± 0.43 | 3.93 ± 0.1 | 3.45 ± 0.48 | 7.43 ± 0.21 | 11.3 ± 1.3 | 4.57 ± 0.2 | 7.897 ± 0.015 | 5.51 ± 0.059 | 12.6 ± 0.035
8 | MSKSLQKPTILNVETVARSRLFTVESVDLEFSNGVRRVYERMRPTNREAVMIVPIVDDHLILIREYAVGTESYELGFSKGLIDPGESVYEAANRELKEEVGFGANDLTFLKKLSMAPSYFSSKMNIVVAQDLYPESLEGDEPEPLPQVRWPLAHMMDLLEDPDFNEARNVSALFLVREWLKGQGRV | 4.86 ± 0.33 | 4.8 ± 1.8 | 3.56 ± 0.2 | 4.58 ± 0.89 | 3.4 ± 0.13 | 3.39 ± 0.13 | 5.24 ± 0.67 | 9.26 ± 1.9 | 3.9 ± 0.67 | 5.391 ± 0.048 | 5.95 ± 0.12 | 11.5 ± 1
9 | MSKSRLTVFSFVRRFLLRLMVVLAVFWGGGIALFSVAPVPFSAVMVERQVSAWLHGNFRYVAHSDWVSMDQISPWMGLAVIAAEDQKFPEHWGFDVASIEKALAHNERNENRIRGASTISQQTAKNLFLWDGRSWVRKGLEAGLTLGIETVWSKKRILTVYLNIAEFGDGVFGVEAAAQRYFHKPASKLTRSEAALLAAVLPNPLRFKVSSPSGYVRSRQAWILRQMYQLGGEPFMQQHQLD | 7.03 | 6.44 ± 0.48 | 6.04 ± 0.026 |  | 5.87 ± 0.34 | 3.16 |  | 10.8 ± 1.2 | 6.11 ± 0.23 | 12.3 ± 1.5 | 6.23 ± 0.25 | 12.8 ± 0.19
10 | MSKTFARSSLCALSMTIMTAHAAEPPTNLDKPEGRLDIIAWPGYIERGQTDKQYDWVTQFEKETGCAVNVKTAATSDEMVSLMTKGGYDLVTASGDASLRLIMGKRVQPINTALIPNWKTLDPRVVKGDWFNVGGKVYGTPYQWGPNLLMYNTKTFPTPPDSWQVVFVEQNLPDGKSNKGRVQAYDGPIYIADAALFVKATQPQLGISDPYQLTEEQYQAVLKVLRAQHSLIHRYWHDTTVQMSDFKNEGVVASSAWPYQANALKAEGQPVATVFPKEGVTGWADTTMLHSEAKHPVCAYKWMNWSLTPKVQGDVAAWFGSLPVVPEGCKASPLLGEKGCETNGFNYFDKIAFWKTPIAEGGKFVPYSRWTQDYIAIMGGR | 5.24 ± 0.43 | 5.67 ± 0.8 | 7.1 ± 0.7 | 7.128 ± 0.054 | 5.71 ± 0.53 | 3.27 ± 0.29 | 7.18 ± 0.46 | 13.3 ± 0.99 | 6.37 ± 0.074 | 14.3 ± 0.99 | 6.9 ± 1 | 13.8 ± 0.29

— the supplement of paper PMC11246515
